This test deals with BtAAV-10HB capsid viral proteins (VP1, VP2, VP3) assembled as the capsid (bat adeno-associated virus BtAAV-10HB). The experiment in a line: cryo-EM structure.

Take “BtAAV-10HB capsid viral proteins (VP1, VP2, VP3) assembled as the capsid (complex)”: the stoichiometry N amounted to 60.

The stoichiometry N is a count of units in the complex or per binding partner.

The values above are taken from PMC9744130.
